In paper PMC6039445 (Nature Communications, 2018):

B1: H3v-47 Fab (Fab, V domains shown)
VH: QVQLVQSGAEVKKPGSSVRVSCKASGDTFSSYSITWVRQAPGHGLQWMGGIFPIFGSTNYAQKFDDRLTITTDDSSRTVYMELTSLRLEDTAVYYCARGASKVEPAAPAYSDAFDMWGQGTLVTVSS
VL: DIVMTQSPGTLSLSPGERATLSCRTSQGVSSSYLAWYQQKPGQAPRLLISGSSSRATGIPDRFSGSGSGRDFTLTISRLEPEDSAVYYCQQYATSPTFGQGTRVEIK
B2: H3v-47 IgG (antibody, V domains shown)
VH: B1 VH
VL: B1 VL
notes: also called mAb H3v-47; source: human hybridoma cell line, serum-free medium, purified (protein G); copies: 2 + 2

What was measured:
[1] = target: HA of the Beijing 1989 strain (A/Beijing/353/1989 H3N2), soluble, biotinylated (Influenza A virus A/Beijing/353/1989 …, UniProt O11283, strain, biotin (site not stated)); assay: BLI; conditions: both partners purified
[2] = target: HA of the Shandong 1993 strain (A/Shandong/9/1993 H3N2), soluble, biotinylated (Influenza A virus A/Shandong/9/1993 …, UniProt H9XM74, strain, biotin (site not stated)); assay: BLI; conditions: both partners purified

| Binder | binding result [1] | binding result [2] |
| --- | --- | --- |
| B1 | binds | binds |
| B2 | binds | binds |
